Assay results reported in the supplement of paper PMC7877785.
± gives the uncertainty stated by the source.

Experiment: self-splicing fitness, log relative to wild type (ln ratio); higher = more splicing; Tetrahymena group I intron in knt gene, E. coli kanamycin selection, DiMSum; sequences stand for … in CUCUCU…GGAGGGAAAAGUUAUCAGGCAUGCACCUGGUAGCUAGUCUUUAAACCAAUAGAUUGCAUCGGUUUAAAAGGCAAGACCGUCAAAUUGCGGGAAAGGGGUCAACAGCCGUUCAGUACCAAGUCUCAGGGGAAACUUUGAGAUGGCCUUGCAAAGGGUAUGGUAAUAAGCUGACGGACAUGGUCCUAACCACGCAGCCAAGUCCUAAGUCAACAGAUCUUCUGUUGAUAUGGAUGCAGUUCACAGACUAAAUGUCGGUCGGGGAAGAUGUAUUCUUCUCAUAAGAUAUAGUCGGACCUCUCCUUAAUGGGAGCUAGCGGAUGAAGUGAUGCAACACUGGAGCCGCUGGGAACUAAUUUGUAUGCGAAAGUAUAUUGAUUAGUUUUGGAGUACUCGUGGUCG
How it was run: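 A randomised library covering all eight P1ex-region intron nucleotides was built with the intron in the knt kanamycin-resistance gene on pET-22b(+) and held in E. coli BL21(DE3). Cells were grown overnight at 37°C or 30°C on LB agar, with or without 25 μg/mL kanamycin, plus 100 μg/mL carbenicillin, 50 μM IPTG and 0.2% rhamnose, and pooled colonies were amplicon-sequenced on an Illumina HiSeq 2500. DiMSum fitness is the error-weighted combination of wild-type-normalised replicate fold changes, kanamycin versus none.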

| Sequence | self-splicing fitness (ln) (30 °C) | self-splicing fitness (ln) (37 °C) |
| --- | --- | --- |
| UAGAAGCAAUAUUACGGCAG | -0.136 ± 0.12 | 0.24 ± 0.16 |
| UCGAAGCAAUAUUACGGCAC | -1.74 ± 0.23 | -1.95 ± 0.32 |
| AUGAAGCAAUAUUACGCCAC | -0.249 ± 0.39 | -1.9 ± 0.41 |
| CGAAAGCAAUAUUACGAAUU | -4.27 ± 0.29 | -1.55 ± 0.14 |
| UGGCAGCAAUAUUACGGUAC | -2.66 ± 0.2 | -2.01 ± 0.31 |
| AGCGAGCAAUAUUACGUGCG | -2.67 ± 0.094 | -0.964 ± 0.098 |
| UCGCAGCAAUAUUACGUACU | – | -1.86 ± 0.32 |
| CCAUAGCAAUAUUACGAAUU | -3.3 ± 0.23 | -2.51 ± 0.39 |
| AGAAAGCAAUAUUACGAGAG | -3.2 ± 0.16 | -2.44 ± 0.17 |
| CAGGAGCAAUAUUACGCGGU | – | -3.29 ± 0.47 |
| AUCCAGCAAUAUUACGGCCC | -0.946 ± 0.2 | 0.127 ± 0.21 |
| GCAGAGCAAUAUUACGGAUA | -1.48 ± 0.32 | -2.92 ± 0.4 |
| CCGCAGCAAUAUUACGAACC | -1.84 ± 0.39 | – |
| UUGAAGCAAUAUUACGAAUA | -0.868 ± 0.12 | -1.13 ± 0.15 |
| GAACAGCAAUAUUACGGACU | -1.28 ± 0.085 | -0.212 ± 0.097 |
| UGCUAGCAAUAUUACGGGAU | -3.68 ± 0.19 | -1.76 ± 0.14 |
| AAACAGCAAUAUUACGGGUC | -3.47 ± 0.16 | -3.08 ± 0.22 |
| ACAAAGCAAUAUUACGGUAC | -3.33 ± 0.13 | -2.3 ± 0.15 |
| GUACAGCAAUAUUACGAAUA | -3.26 ± 0.22 | -1.67 ± 0.13 |
| UCUGAGCAAUAUUACGCCCU | – | -1.62 ± 0.33 |

| Sequence | self-splicing fitness (ln) (30 °C) | self-splicing fitness (ln) (37 °C) |
| --- | --- | --- |
| AAAAAGCAAUAUUACGCUAC | -3.43 ± 0.18 | -3.23 ± 0.24 |
| GUGCAGCAAUAUUACGCCUU | -1.26 ± 0.16 | -0.215 ± 0.14 |
| CCCGAGCAAUAUUACGAGAU | -3.49 ± 0.21 | -2.59 ± 0.3 |
| CCCCAGCAAUAUUACGGCCG | -3.62 ± 0.17 | -1.88 ± 0.16 |
| GCGUAGCAAUAUUACGAGGU | -2.81 ± 0.36 | -2.62 ± 0.36 |
| CUAAAGCAAUAUUACGCCUA | -3.27 ± 0.23 | – |
| ACUAAGCAAUAUUACGUAAC | -4.39 ± 0.26 | -2.48 ± 0.24 |
| CCGUAGCAAUAUUACGUCAU | -3.33 ± 0.24 | -2.32 ± 0.28 |
| AUAGAGCAAUAUUACGAUGG | -2.76 ± 0.21 | -2.02 ± 0.31 |
| CCGUAGCAAUAUUACGUUUU | -4.21 ± 0.23 | -2.87 ± 0.22 |
| UUGCAGCAAUAUUACGGCGC | -1.8 ± 0.24 | -1.84 ± 0.31 |
| UGGCAGCAAUAUUACGCCUG | -1.24 ± 0.097 | -0.681 ± 0.13 |
| AACCAGCAAUAUUACGCAGC | -2.4 ± 0.11 | -1.29 ± 0.11 |
| GCUCAGCAAUAUUACGCACC | -1.94 ± 0.23 | 0.598 ± 0.24 |
| UGGGAGCAAUAUUACGAGCG | -1.56 ± 0.14 | -0.816 ± 0.15 |
| GCAUAGCAAUAUUACGAUAU | -1.9 ± 0.084 | 0.148 ± 0.09 |
| CCCCAGCAAUAUUACGUGCU | -3.34 ± 0.14 | -2.47 ± 0.16 |
| CGGCAGCAAUAUUACGGAUC | -2.88 ± 0.27 | -2.04 ± 0.2 |
| CUACAGCAAUAUUACGGGCG | -1.2 ± 0.065 | -0.108 ± 0.092 |
